Test results as given in the supplement of paper PMC10724198.
± gives the standard deviation of the averaged measurements.

Legend:
Saccharomyces cerevisiae [1] = experiment: protein stability index of tFT-peptide fusion (C-terminal peptide) (PSI (0-1 scale)); higher = more stable (slower turnover)
Protocol: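 MPS profiling in S. cerevisiae of the tFT-X12 degron library: putative degron peptides plus stable controls, 12 aa, fused to the C-terminus of a sfGFP-mCherry timer. Cells are FACS-sorted into 8 mCherry/sfGFP bins and deep-sequenced. PSI runs from 0 (unstable) to 1 (stable). Backgrounds are wild type, das1Δ and doa10Δ at 30 °C, and wild type, das1Δ, cdc34-1 and cdc53-1 at 37 °C; 2-3 technical replicates each.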

Saccharomyces cerevisiae [2] = experiment: as above; conditions: genetic background: wild type; temperature: 30 C
[3] = genetic background: cdc34-1, temperature: 37 C
[4] = genetic background: cdc53-1, temperature: 37 C
[5] = genetic background: das1 deletion, temperature: 30 C
[6] = genetic background: das1 deletion, temperature: 37 C
[7] = genetic background: doa10 deletion, temperature: 30 C
[8] = genetic background: wild type, temperature: 30 C
[9] = genetic background: wild type, temperature: 37 C
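Also: PSI is a weighted mean of sequencing reads over stability bins, variants kept only with over 10 reads, mCherry proximal and sfGFP distal, peptide attached via GGGS linker.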

Sequence | protein stability index (Saccharomyces cerevisiae [1]; [3]) | protein stability index (Saccharomyces cerevisiae [1]; [4]) | protein stability index (Saccharomyces cerevisiae [1]; [5]) | protein stability index (Saccharomyces cerevisiae [1]; [6]) | protein stability index (Saccharomyces cerevisiae [1]; [7]) | protein stability index (Saccharomyces cerevisiae [1]; [8]) | protein stability index (Saccharomyces cerevisiae [1]; [9]) | protein stability index (Saccharomyces cerevisiae [2])
GPVRSPPSPTPR | 0.674 ± 0.03 | 0.737 ± 0.0096 | 0.682 ± 0.015 | 0.73559 ± 0.00023 | 0.674 ± 0.024 | 0.66 ± 0.027 | 0.698 ± 0.014 | 0.727 ± 0.05
GQFVISVRFLYE | 0.454 ± 0.045 | 0.503 ± 0.044 | 0.412 ± 0.024 | 0.5374 ± 0.0031 | 0.389 ± 0.0083 | 0.417 ± 0.024 | 0.516 ± 0.011 | 0.515 ± 0.068
GRGVRLRVRLLL | 0.664 ± 0.023 | 0.73 ± 0.031 | 0.606 ± 0.022 | 0.7 ± 0.019 | 0.185 ± 0.014 | 0.217 ± 0.006 | 0.43 ± 0.04 | 0.292 ± 0.1
GRVETIEFLFLR | 0.455 ± 0.0049 | 0.4335 ± 0.0015 | 0.368 ± 0.038 | 0.525 ± 0.0074 | 0.656 ± 0.012 | 0.394 ± 0.044 | 0.508 ± 0.022 | 0.464 ± 0.025
GRWAFFTWLRWS | 0.553 ± 0.016 | 0.674 ± 0.016 | 0.62 ± 0.047 | 0.6825 ± 0.0042 | 0.175 ± 0.0041 | 0.177 ± 0.025 | 0.269 ± 0.047 | 0.261 ± 0.014
GSDGVGGTVLYA | 0.685 ± 0.061 | 0.755 ± 0.014 | 0.634 ± 0.021 | 0.729 ± 0.015 | 0.638 ± 0.013 | 0.666 ± 0.023 | 0.728 ± 0.035 | 0.687 ± 0.037
GSLVLSCLMSRA | 0.558 ± 0.04 | 0.603 ± 0.018 | 0.42 ± 0.034 | 0.573 ± 0.0029 | 0.431 ± 0.037 | 0.438 ± 0.012 | 0.537 ± 0.02 | 0.4872 ± 0.00045
GTIFLIRVLLFG | 0.154 ± 0.0049 | 0.284 ± 0.026 | 0.222 ± 0.024 | 0.387 ± 0.029 | 0.171 ± 0.015 | 0.213 ± 0.023 | 0.357 ± 0.069 | 0.284 ± 0.028
GVARALFLWKAV | 0.64 ± 0.032 | 0.709 ± 0.018 | 0.65 ± 0.022 | 0.7486 ± 0.0021 | 0.286 ± 0.0013 | 0.317 ± 0.03 | 0.464 ± 0.0088 | 0.379 ± 0.041
GVLTVVLQVGVV | 0.299 ± 0.033 | 0.378 ± 0.053 | 0.309 ± 0.038 | 0.428 ± 0.019 | 0.282 ± 0.011 | 0.304 ± 0.02 | 0.407 ± 0.0063 | 0.393 ± 0.0095
GVMICLDLLLSV | 0.482 ± 0.011 | 0.521 ± 0.021 | 0.377 ± 0.025 | 0.539 ± 0.014 | 0.361 ± 0.018 | 0.395 ± 0.017 | 0.528 ± 0.0073 | 0.468 ± 0.0081
GVVCCGFFFLVV | 0.475 ± 0.012 | 0.525 ± 0.028 | 0.401 ± 0.024 | 0.57 ± 0.018 | 0.363 ± 0.0058 | 0.41 ± 0.04 | 0.528 ± 0.055 | 0.464 ± 0.016
GWCLLRVLVLVW | 0.0502 ± 0.035 | 0.043 ± 0.0082 | 0.0937 ± 0.023 | 0.107 ± 0.0087 | 0.104 ± 0.024 | 0.0811 ± 0.02 | 0.0921 ± 0.035 | 0.175 ± 0.022
GYRRCCHFLFTL | 0.671 ± 0.02 | 0.735 ± 0.035 | 0.622 ± 0.023 | 0.747 ± 0.00099 | 0.359 ± 0.023 | 0.375 ± 0.029 | 0.56 ± 0.0064 | 0.423 ± 0.034
HHRLRQGLRRIN | 0.64 ± 0.039 | 0.7278 ± 0.0055 | 0.638 ± 0.0082 | 0.7023 ± 0.003 | 0.251 ± 0.0034 | 0.293 ± 0.0082 | 0.5161 ± 0.0011 | 0.462 ± 0.014
HPPPTLVPPHPR | 0.64 ± 0.032 | 0.709 ± 0.031 | 0.674 ± 0.011 | 0.727 ± 0.0074 | 0.7045 ± 0.0028 | 0.681 ± 0.019 | 0.6803 ± 0.0027 | 0.616 ± 0.19
HRLQFKGYPICA | 0.243 ± 0.039 | 0.255 ± 0.067 | 0.235 ± 0.048 | 0.371 ± 0.015 | 0.18 ± 0.0058 | 0.223 ± 0.025 | 0.338 ± 0.0061 | 0.33 ± 0.0051
HRPRPLLKLLAS |  | 0.596 ± 0.098 | 0.585 ± 0.083 | 0.67983 ± 0.0006 | 0.0522 ± 0.045 | 0.0779 ± 0.044 | 0.0284 ± 0.018 | 0.145 ± 0.011
HSRRRRPTPQSL | 0.609 ± 0.047 | 0.65 ± 0.016 | 0.651 ± 0.036 | 0.636 ± 0.011 | 0.662 ± 0.014 | 0.64 ± 0.019 | 0.61 ± 0.016 | 0.571 ± 0.12
HVCKLAMFQWYF | 0.6 ± 0.011 | 0.713 ± 0.031 | 0.609 ± 0.012 | 0.72211 ± 0.00042 | 0.2873 ± 0.0019 | 0.302 ± 0.02 | 0.533 ± 0.029 | 0.371 ± 0.018
